Test results from patent US20250011363A1, “OPTIMIZED SHORTENED PEPTIDE THAT BINDS TO ACETYLCHOLINE RECEPTOR, AND USE THEREOF” (SKINMED CO., LTD., priority 2021, published 2025).

Molecular target: acetylcholine receptor
Experiment: SPR, AchR immobilized on CM5 chip, peptide at 10 uM

| Binding affinity (RU) | Binder |
| --- | --- |
| 12 | KYDNK [5mer-1048] |
| 14 | RMEIK [5mer-745] |
| 26 | RMTVK [5mer-746] |
| 19 | KHTMR [5mer-1046] |
| 12 | REPMK [5mer-748] |
| 23 | KAHMR [5mer-1047] |
| 31 | RKTDK [5mer-747] |
| 22 | KMDEK [5mer-1045] |
| 22 | RDCFK [5mer-1044] |

Molecular target: acetylcholine receptor
Experiment: SPR, receptor immobilized on CM5 chip, peptide 10 uM

| Binder | Binding affinity (RU) |
| --- | --- |
| KRSRQK [6mer-1-284] | 145 |
| RKRVLK [6mer-1-275] | 123 |
| KKQVSK [6mer-1-273] | 137 |
| RKRYYR [6mer-1-289] | 153 |
| KKQIRK [6mer-1-291] | 142 |
| KKVQQR [6mer-1-288] | 148 |
| KKQVSR [6mer-1-272] | 139 |
| RRVICK [6mer-1-276] | 128 |
| KRWVQR [6mer-1-285] | 122 |
| KRGLRR [6mer-1-270] | 149 |
| RRLRYR [6mer-1-279] | 145 |
| RKLISK [6mer-1-286] | 139 |
| KRLLYK [6mer-1-274] | 135 |
| RKLQCK [6mer-1-280] | 149 |
| KKWVQK [6mer-1-283] | 133 |
| RKWLTR [6mer-1-287] | 136 |
| KRLLCR [6mer-1-281] | 154 |
| RKRRQR [6mer-1-269] | 142 |
| RRRRYR [6mer-1-282] | 121 |
| KKGLCR [6mer-1-277] | 141 |
| KRQQTR [6mer-1-278] | 142 |
| RRQVSK [6mer-1-271] | 122 |
| RKQLTK [6mer-1-290] | 146 |

The remaining lines, values ahead:

| Binding affinity (RU) | Binder |
| --- | --- |
| 121 | RKSIRR [6mer-1-296] |
| 145 | RKQIRK [6mer-1-316] |
| 139 | RRGFSK [6mer-1-297] |
| 154 | RRRRLR [6mer-1-334] |
| 135 | KRRITR [6mer-1-308] |
| 151 | KKSRQK [6mer-1-312] |
| 145 | KKSRRK [6mer-1-318] |
| 26 | KRCHFR [6mer-1-866] |
| 128 | RKRITR [6mer-1-331] |
| 153 | RKWISR [6mer-1-305] |
| 135 | RKRQSR [6mer-1-333] |
| 154 | RKQVRR [6mer-1-321] |
| 154 | RKRVCK [6mer-1-293] |
| 141 | RRRILR [6mer-1-314] |
| 121 | KRVQYR [6mer-1-320] |
| 127 | RRGYQK [6mer-1-311] |
| 148 | KRQRCR [6mer-1-295] |
| 148 | RRWFCK [6mer-1-313] |
| 153 | KKGICK [6mer-1-309] |
| 123 | RKQYCK [6mer-1-303] |
| 151 | KRWLQK [6mer-1-328] |
| 135 | KKLFYR [6mer-1-306] |
| 128 | RKQQTK [6mer-1-315] |

| Binding affinity (RU) | Binder |
| --- | --- |
| 25 | KRIPMR [6mer-1-867] |
| 148 | RKVQRK [6mer-1-330] |
| 142 | RRQIQR [6mer-1-325] |
| 128 | RRLQRR [6mer-1-324] |
| 127 | RKRQLK [6mer-1-310] |
| 149 | RRWLYR [6mer-1-323] |
| 122 | KKRVQK [6mer-1-332] |
| 151 | RRGQSR [6mer-1-302] |
| 148 | KRSFRR [6mer-1-317] |
| 14 | KKHHAR [6mer-1-868] |
| 136 | RKWIYK [6mer-1-326] |
| 122 | RKWQTK [6mer-1-292] |
| 147 | KKLYCK [6mer-1-298] |
| 153 | KRWYRR [6mer-1-307] |
| 154 | RRSILR [6mer-1-301] |
| 139 | KRWLSK [6mer-1-299] |
| 123 | KKLYRR [6mer-1-294] |
| 146 | KRGVQR [6mer-1-322] |
| 123 | RKWRQK [6mer-1-329] |
| 121 | RKLYSR [6mer-1-304] |
| 148 | RRWQQK [6mer-1-300] |
| 139 | KRGITR [6mer-1-327] |
| 123 | KRWVQK [6mer-1-319] |
